Laboratory results: CN114106159A (ANYUAN MEDICINE SCIENCE AND TECH SHANGHAI LIMITED COMPANY, dated 2022)

B1: 鼠源抗体S1B-91-3 (murine monoclonal antibody against SARS-CoV-2 S1) (antibody, V domains shown)
VH: QVQLQQSGPQLVRPGASVKISCKASGYSFTDYWLHWVKQRPGQGLEWIGMLDPSDGETRLNQKFKDKATLTVDKSSTTAYMQLSSPTSEDSAVYYCARRHFGYDFDYWGQGTTLTVSS
VL: DIVMTQAAPSVPVTPGESVSISCRSSKSLLHSNGNTYLYWFLQRPGQSPQLLIYRMSNLASGVPDRFSGSGSGTAFTLRISRVEAEDVGVYYCMQHLEYPLTFGGGTKLEVK
notes: also called 鼠源单抗S1B-91-3; 鼠抗S1B-91-3
B2: 人源化抗体hS1B-91-3 (humanized antibody) (antibody, V domains shown)
VH: EVQLVQSGAEVKKPGSSVKVSCKASGYSFTDYWLHWVRQAPGQGLEWIGMLDPSDGETRLNQKFKDKATLTVDKSTTTAYMQLSSLRSEDTAVYYCARRHFGYDFDYWGQGTTVTVSS
VL: DIVMTQSPSSLPVTPGQPASISCRSSKSLLHSNGNTYLYWFLQKPGKSPQLLIYRMSNLASGVPDRFSGSGSGTDFTLKISRVEAEDVGVYYCMQHLEYPLTFGGGTKVEIKR
notes: also called 人源化单克隆抗体hS1B-91-3

Columns and labels:
[1] = molecular target: T1, SARS-CoV S1蛋白 (ACRO Biosystems) (SARS-CoV, UniProt P59594 14-667); assay: indirect ELISA, SARS-CoV S1 coated at 0.1 μg/mL
T1 construct: domain: S1

刺突S蛋白-鼠Fc融合蛋白 (S-mFc) = molecular target: T2, 刺突S蛋白-鼠Fc融合蛋白 (S-mFc) (SARS-CoV-2; mouse, UniProt P0DTC2 14-1213); assay: flow cytometry, blocking of S-mFc binding to 293T-ACE2 cells
T2 construct: domain: S蛋白全长区段

[2] = molecular target: T3, SARS-CoV-2 S1蛋白 (ACRO Biosystems) (SARS-CoV-2, UniProt P0DTC2 16-685); assay: competition ELISA, coated SARS-CoV-2 S1, HRP-hACE2-Fc as competitor
T3 construct: domain: S1

Binder	binding result [1]	IC50 (刺突S蛋白-鼠Fc融合蛋白 (S-mFc)) [mg/L]	EC50 [2] [mg/L]
B1	no binding	0.0137	
B2		0.00813	0.0738
